For one assay, the target named is T1, Ede1-mCherry (S. cerevisiae, UniProt P34216 1-1381).
T1 construct: Ede1 (Eps15/R homolog), S. cerevisiae; gene tagged at its endogenous locus, no truncation told; Linker RTLQVD between protein and C-terminal tag; source: S. cerevisiae, expressed from its endogenous locus, in live cells; not shown: mCherry, C-terminal, kept
T1 sequence (looked up): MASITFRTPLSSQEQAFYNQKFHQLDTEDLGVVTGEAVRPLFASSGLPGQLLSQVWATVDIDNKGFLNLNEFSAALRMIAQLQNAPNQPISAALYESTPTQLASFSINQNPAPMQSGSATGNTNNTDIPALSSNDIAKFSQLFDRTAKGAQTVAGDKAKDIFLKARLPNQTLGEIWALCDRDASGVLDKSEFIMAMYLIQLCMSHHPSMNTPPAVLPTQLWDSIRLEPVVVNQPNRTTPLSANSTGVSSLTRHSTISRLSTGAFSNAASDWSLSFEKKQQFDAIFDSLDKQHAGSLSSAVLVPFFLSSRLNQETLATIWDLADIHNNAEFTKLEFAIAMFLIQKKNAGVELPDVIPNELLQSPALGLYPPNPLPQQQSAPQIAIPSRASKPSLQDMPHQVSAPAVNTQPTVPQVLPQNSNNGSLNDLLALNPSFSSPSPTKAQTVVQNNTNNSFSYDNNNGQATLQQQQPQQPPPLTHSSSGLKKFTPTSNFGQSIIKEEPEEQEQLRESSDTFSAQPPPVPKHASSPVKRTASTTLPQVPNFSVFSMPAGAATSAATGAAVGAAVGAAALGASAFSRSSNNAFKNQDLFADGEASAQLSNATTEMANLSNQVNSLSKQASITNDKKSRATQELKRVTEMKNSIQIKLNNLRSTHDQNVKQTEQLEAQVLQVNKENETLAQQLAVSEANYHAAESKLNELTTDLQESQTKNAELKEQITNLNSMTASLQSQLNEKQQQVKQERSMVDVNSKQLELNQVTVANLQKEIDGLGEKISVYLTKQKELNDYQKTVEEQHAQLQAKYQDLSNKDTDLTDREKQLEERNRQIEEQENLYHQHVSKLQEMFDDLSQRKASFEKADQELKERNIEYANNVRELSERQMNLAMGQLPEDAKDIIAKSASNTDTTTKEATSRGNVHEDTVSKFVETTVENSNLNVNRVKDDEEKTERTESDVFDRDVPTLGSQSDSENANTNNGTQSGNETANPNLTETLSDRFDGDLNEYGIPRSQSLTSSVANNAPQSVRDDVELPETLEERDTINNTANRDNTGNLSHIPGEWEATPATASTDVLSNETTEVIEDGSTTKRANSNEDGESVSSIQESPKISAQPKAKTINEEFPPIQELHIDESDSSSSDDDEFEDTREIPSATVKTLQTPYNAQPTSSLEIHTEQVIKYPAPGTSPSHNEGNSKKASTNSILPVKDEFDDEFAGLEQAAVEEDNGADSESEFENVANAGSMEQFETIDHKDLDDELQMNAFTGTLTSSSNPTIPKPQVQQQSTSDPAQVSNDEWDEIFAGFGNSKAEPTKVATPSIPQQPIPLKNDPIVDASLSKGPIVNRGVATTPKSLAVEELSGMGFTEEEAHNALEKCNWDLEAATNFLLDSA
Nature of the assay: FRET or BRET; acceptor photobleaching in live yeast; inner cytoplasmic (nucleus and vacuole free) areas; GFP/mCherry or mTurquoise2/mNeonGreen pairs. To be noted: partners not purified.

For assay [1], the target named is T2, Pan1, full length, with a C-terminal fluorescent tag (S. cerevisiae, UniProt P32521 1-1480).
T2 construct: Pan1, S. cerevisiae; gene tagged at its endogenous locus; Linker RTLQVD between protein and C-terminal tag; also called Pan1-mCherry; C-terminus of Pan1; source: S. cerevisiae, expressed from its endogenous locus, in live cells; not shown: GFP or mCherry, C-terminal, kept
T2 sequence (looked up): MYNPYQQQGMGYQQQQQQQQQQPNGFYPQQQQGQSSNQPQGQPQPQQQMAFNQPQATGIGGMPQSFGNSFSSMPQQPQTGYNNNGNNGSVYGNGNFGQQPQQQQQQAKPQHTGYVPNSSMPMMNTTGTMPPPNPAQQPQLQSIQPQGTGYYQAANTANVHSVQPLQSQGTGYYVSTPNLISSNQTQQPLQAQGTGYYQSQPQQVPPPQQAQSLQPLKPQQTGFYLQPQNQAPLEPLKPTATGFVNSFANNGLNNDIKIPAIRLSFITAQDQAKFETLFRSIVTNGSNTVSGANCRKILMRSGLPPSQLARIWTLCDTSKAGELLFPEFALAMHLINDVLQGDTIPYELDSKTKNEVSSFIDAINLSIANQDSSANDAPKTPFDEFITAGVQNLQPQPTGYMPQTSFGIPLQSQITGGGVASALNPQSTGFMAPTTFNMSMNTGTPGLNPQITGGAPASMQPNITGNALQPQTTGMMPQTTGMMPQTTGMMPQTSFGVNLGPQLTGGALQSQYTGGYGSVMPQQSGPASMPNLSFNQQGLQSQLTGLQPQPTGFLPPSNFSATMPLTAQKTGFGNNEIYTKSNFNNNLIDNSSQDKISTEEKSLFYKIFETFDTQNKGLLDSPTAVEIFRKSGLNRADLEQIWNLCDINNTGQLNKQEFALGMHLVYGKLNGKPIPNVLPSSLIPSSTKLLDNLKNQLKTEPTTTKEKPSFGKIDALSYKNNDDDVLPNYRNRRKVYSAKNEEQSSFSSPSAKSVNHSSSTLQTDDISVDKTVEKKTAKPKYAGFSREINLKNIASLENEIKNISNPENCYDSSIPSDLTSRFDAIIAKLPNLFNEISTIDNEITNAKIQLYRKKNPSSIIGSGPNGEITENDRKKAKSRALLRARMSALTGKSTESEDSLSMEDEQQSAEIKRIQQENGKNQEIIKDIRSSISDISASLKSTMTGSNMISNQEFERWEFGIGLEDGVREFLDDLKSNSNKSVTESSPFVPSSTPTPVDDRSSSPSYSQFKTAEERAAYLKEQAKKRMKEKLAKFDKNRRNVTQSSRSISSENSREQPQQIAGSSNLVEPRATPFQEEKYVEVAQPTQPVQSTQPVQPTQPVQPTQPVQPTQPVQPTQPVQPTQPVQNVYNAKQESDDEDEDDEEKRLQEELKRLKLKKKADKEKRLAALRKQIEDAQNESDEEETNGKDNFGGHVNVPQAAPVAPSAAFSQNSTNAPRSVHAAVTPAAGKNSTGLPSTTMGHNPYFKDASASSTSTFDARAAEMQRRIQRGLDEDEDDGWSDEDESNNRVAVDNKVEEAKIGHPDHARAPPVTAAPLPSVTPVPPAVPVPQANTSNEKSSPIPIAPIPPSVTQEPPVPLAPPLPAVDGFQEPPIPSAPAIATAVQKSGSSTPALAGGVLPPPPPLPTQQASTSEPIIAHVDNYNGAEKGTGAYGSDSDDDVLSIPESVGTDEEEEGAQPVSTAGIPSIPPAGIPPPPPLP
The description is as above. As to conditions: partners not purified.

B1: Syp1-GFP (natural protein, S. cerevisiae, UniProt P25623 1-870, looked up)
chain: MTEQRTKYADSILTTKSPYEATETIRIRLSQVKLLNKDFYLLFKELANLKRNYAQQLRKIIAENEDITKILNAQMIESNVLTPQEMSAFRFNSLGELRNVWDTVIEELKSDLKSSTEYYNTLDQQVVRELKESVENNTSWRESKDLHSKLSKNAASIEHYSKNNENSSHLEEARRQWDQQSPYLFELFETIDYNRLDTLKNCMLRFQTSFSDYLLNTTKECETVMTKFLAFEPQSEIDRFAKDASQYNFQLSSSSKEVVPNNASPASATGARPVSVSNGAANTEREKKSPQKDKRKSAFGNIGHRLASASSSLTHNDLMNNEFSDSTNNSSLKSKKSSHTLRSKVGSIFGRNKTKNKRQQQSSSNSHIQASITETPNNSSTRVSSTATSSIYQKQRRPTYSSSKSNNWTPGEASDTPPLPPHATPKNVDAPVTADTPPAQTFTPSEVPPSTPQQSSPPTAKEPDSSNLPKTVPISISQPPLQPQSKTKPLPVEPASPSISLPTATVDNQPSGQVDSRPLHIRAPALPPSRKQNFIHNRDSQLYDSLPNHGSGATPTSSSLSSIPQERPVSTLSSQITGELRELNPQATGSSTSLVGQSLFQHSSLDTSQFGLNASIAEVLNASFKDGMLQNSQLIGEIALNYLPNSVMNSPLPIGINLRINNGAKFEKVILNQAFIERVAPEEFKVNPSFIDSRTLGAIKYSIKEPIAPIVIHPVWRFESHQASVVLTVKMSPSLPDEISQIVIEDLVVFVNIDGANATSALSKPQGSFSKEKKRITWRFKEPVVLTRNGEGQRLIARFITDGLAHESAKGVITKFTISETDNVALPHSGAGSGITLTCQELDENNPFGGEWLDVNTKRTLTTGNYHGLA
notes: Syp1 (FCHo1/2 homolog), S. cerevisiae; gene tagged at its endogenous locus, no truncation told; Linker RTLQVD between protein and C-terminal tag; source: S. cerevisiae, expressed from its endogenous locus, in live cells; not shown: GFP, C-terminal, kept
Turning to B1, the FRET efficiency with Ede1-mCherry turned out to be 2.5%.

B2: GFP-End3 (natural protein, S. cerevisiae, UniProt P39013 1-349, looked up)
chain: MPKLEQFEIKKYWQIFSGLKPIENKVNHDQVLPILYNSKLDSSVLNKIWFLADIDDDDNLDFEEFVICMRLIFDMVNKNISSVPDELPDWLIPGSKVNLIKERKKRKQIENADLPPKKEIKVDWYMSPDDLNQYEKIYNSCAKLTDGTITFNELSTKLSTKFFNISKTDLNKVWSLINPQNLPSIDRDPTFYFIHCLRQRNDLGAEIPASLPNSLAEVCNKKQLSYDLRSSQPPTKRKEEANEVDNLRDNGQNSSSDSSGSNVLSNEDSIKQKYASLTDDQVANMREQLEGLLNYKKSEKTQGGSKLSKRINIRSITDDLDNIEQQVEVLENYLNNKRHELQALQAEIN
notes: End3, S. cerevisiae; gene tagged at its endogenous locus, no truncation told; Linker GS(GGGGS)3ATENNS between N-terminal tag and protein; also called N-terminus of End3; source: S. cerevisiae, expressed from its endogenous locus, in live cells; not shown: GFP, N-terminal, kept
Turning to B2, the FRET efficiency in assay [1] turned out to be 4.5%.

The record behind these values is publication PMC7218409, “The protein architecture of the endocytic coat analyzed by FRET microscopy” (Molecular Systems Biology, 2020).
